Measurements reported in patent publication US20050100919, “Nucleic acid-based detection” (Brandeis University, a Massachusetts corporation, published 2005).

Tests used:
[1] = target: factor IX (UniProt P00740 P00740:47-461); experiment: specificity control; no effect on beacon fluorescence in TE; settings: tags: purchased from Enzyme Research Lab; label: 5'-fluorescein, 3'-DABCYL; alternate 5-bp stem-loop / G4
Description: Thrombin binding assay using a fluorescence spectrometer: The aptamers were diluted to a concentration of 10 uM in TBB or TE (20 mM Tris-HCl, 1 mM EDTA, pH7.5) and heated at 99° for three min and cooled down to room temperature prior to the experiment. The experiment was performed using 5-40 nM of aptamer in 2 ml. All of the fluorescence intensity measurements were performed at 24° C. The excitation wavelength was 495 nm and the emission was monitored at its peak, 516 nm (in TE) or 518 nm (in TBB). A small volume (0.5-3 μl) of thrombin (final concentration of 0-250 nM) was added and the change of emission was monitored.
To confirm the binding specificity of G15D5dMB, we used factor IX, which is a plasma serine protease, as is thrombin, and shares a sequence identity of 37% in the catalytic domain with thrombin.

[2] = target: T1, thrombin (UniProt P00734;P00734 P00734:328-363,P00734:364-622); experiment: fluorescence change at 100 nM thrombin in TE
[3] = target: T1, thrombin; experiment: competition; affinity increase relative to G15D5d, filter binding competition in TE
[4] = target: T1, thrombin; experiment: fluorescence beacon titration, TE buffer (20 mM Tris-HCl, 1 mM EDTA, pH 7.5), 24 C; estimated
[5] = target: T1, thrombin; experiment: fluorescence beacon titration, TE buffer, 24 C; estimated
[6] = target: T1, thrombin; experiment: fluorescence change at 100 nM thrombin in TBB; not saturated at 250 nM
[7] = target: T1, thrombin; experiment: fluorescence ratio at 100 nM thrombin in TBB; 0.7 in TE
[8] = target: T1, thrombin; experiment: half-maximum effect, fluorescence decrease, TBB (20 mM Tris-HCl, 140 mM NaCl, 5 mM KCl, 1 mM MgCl2, 1 mM CaCl2, pH 7.5)
[9] = target: T1, thrombin; experiment: competition; filter binding competition against radiolabeled G15D5d, TBB; displacement curve only in figure

Sequence of factor IX (P00740 47-461, one chain of several): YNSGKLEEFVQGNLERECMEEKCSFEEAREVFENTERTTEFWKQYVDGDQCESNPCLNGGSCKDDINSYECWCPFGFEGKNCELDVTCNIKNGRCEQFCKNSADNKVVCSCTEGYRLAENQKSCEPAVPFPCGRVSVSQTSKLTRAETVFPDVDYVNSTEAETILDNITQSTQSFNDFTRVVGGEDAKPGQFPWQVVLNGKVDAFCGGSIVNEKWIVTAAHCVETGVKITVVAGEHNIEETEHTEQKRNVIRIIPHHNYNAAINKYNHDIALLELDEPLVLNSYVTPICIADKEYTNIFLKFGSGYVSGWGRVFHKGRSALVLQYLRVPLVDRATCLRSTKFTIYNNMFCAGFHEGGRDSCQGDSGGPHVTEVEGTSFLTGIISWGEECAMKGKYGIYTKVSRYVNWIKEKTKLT

In the case of CCAACGGTTGGTGTGGTTGG (ssDNA) [G15D5dMB], the binding result [1] is reported as “no binding”, the activity [2] is reported as 2.3 fold and the binding signal [3] is reported as ~6 fold. The Kd [4] was 3 nM.

CCAACCGGTTGGTGTGGTTGG (ssDNA) [G15D6dMB] gave an activity [2] of 1.7 fold and a Kd [5] of 12 nM.

CCAAGGTTGGTGTGGTTGG (ssDNA) [G15D4dMB] was tested, and the activity [6] was 1.5 fold.

Work on TTTTTGGTTGGTGTGGTTGG (ssDNA) [G15D5ndMB] yielded an activity [7] of 0.5 fold and an EC50 [8] of ~80 nM.

GGTTGGTGTGGTTGG (ssDNA) [G15D]: binds [9].
